Values quoted from earlier work, collected in article PMC3037977.
Like-named read-outs stand apart in the source and are kept apart here.

Columns and labels:
[1] = target: importin β (Homo sapiens) (UniProt Q14974)
[2] = target: importin β (Homo sapiens) (UniProt Q14974); remark: listed apart in the source

importin β (Homo sapiens), sequence (Q14974 whole entry): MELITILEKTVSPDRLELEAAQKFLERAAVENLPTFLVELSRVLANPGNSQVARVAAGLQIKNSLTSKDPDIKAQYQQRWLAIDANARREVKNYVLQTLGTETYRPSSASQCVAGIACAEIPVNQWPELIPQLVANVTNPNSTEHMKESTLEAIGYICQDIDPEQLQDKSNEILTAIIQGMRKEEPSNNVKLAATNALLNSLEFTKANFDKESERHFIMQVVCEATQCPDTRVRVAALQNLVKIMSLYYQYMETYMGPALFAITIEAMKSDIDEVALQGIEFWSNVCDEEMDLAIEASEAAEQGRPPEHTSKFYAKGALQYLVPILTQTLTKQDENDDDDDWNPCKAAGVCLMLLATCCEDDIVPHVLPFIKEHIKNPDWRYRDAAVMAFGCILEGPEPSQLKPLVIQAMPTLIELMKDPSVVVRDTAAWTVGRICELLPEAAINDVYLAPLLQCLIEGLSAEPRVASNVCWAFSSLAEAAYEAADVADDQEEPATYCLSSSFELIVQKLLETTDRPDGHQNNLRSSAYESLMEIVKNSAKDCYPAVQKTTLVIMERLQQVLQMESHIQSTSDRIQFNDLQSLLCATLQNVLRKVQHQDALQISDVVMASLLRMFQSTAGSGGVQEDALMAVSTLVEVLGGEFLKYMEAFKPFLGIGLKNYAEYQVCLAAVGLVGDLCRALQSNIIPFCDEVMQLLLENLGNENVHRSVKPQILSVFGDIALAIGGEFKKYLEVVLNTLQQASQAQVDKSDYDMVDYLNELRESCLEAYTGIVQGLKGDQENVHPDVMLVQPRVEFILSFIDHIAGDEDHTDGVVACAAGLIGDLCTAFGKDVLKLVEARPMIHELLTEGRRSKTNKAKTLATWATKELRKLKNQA
snurportin IBB domain, sequence (O95149 8-76): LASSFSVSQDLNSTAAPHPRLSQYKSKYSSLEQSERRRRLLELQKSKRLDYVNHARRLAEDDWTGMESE

Substance | Kd [1] [nM] | Kd [2] [nM]
importin α1 IBB domain (from UniProt P52292) | 2 | 
snurportin IBB domain (from UniProt O95149) |  | 2
